Assay results: the DeepSol protein solubility set

Test: soluble on expression in E. coli; label from the status in PepcDB or PDB records

Soluble on expression in E. coli, soluble:
TLAQPVTIREIAEPPKIRLPRHLRQTYIRKVGEQLNLVVPFQGKPRPQVVWTKGGAPLDTSRVHVRTSDFDTVFFVRQAARSDSGEYELSVQIENMKDTATIRIRVVEKAG, MKIIGKIGKGKVEVNEKTKFSILLNNVAKKADIAEGKRAVEDIIRVIYRHQPISTKKIAQKTRLPLPIVAKVRTILEREKILKRTERGAELTDLGKEFAENFLKLKYKKSLTCKTCNGRGIVLDEFFEDILNKVRVWAKRRPLVDTTIDQSFATPETSTYRAALMYERGDLEGKRILFVGDDDLTSLPTALTNMAEEIAVVDIDERILKLIEKFSQKEGVKIKTIKHDLRNPLPQDLKERFDVISTDPPYTVDGLKLFLSRGIEALGKEGIAYLSYSHKPIDEWLSIQKAITNMGFVISELIPNFNYYEGSEIIANTTFIARLVGKNLKINIGDTEKIYTGLVKPVIRYYKCLKCGKIHKVGEEVKKVEDLVCECGGKKFKMIKREKLKNELEHHHHHH, MATKLQDGNTPCLAATPSEPRPTVLVFDSGVGGLSVYDEIRHLLPDLHYIYAFDNVAFPYGEKSEAFIVERVVAIVTAVQERYPLALAVVACNTASTVSLPALREKFDFPVVGVVPAIKPAARLTANGIVGLLATRGTVKRSYTHELIARFANECQIEMLGSAEMVELAEAKLHGEDVSLDALKRILRPWLRMKEPPDTVVLGCTHFPLLQEELLQVLPEGTRLVDSGAAIARRTAWLLEHEAPDAKSADANIAFCMAMTPGAEQLLPVLQRYGFETLEKLAVLG

Soluble on expression in E. coli, not soluble:
MKILVIGGPTAIGKSDLACCVAQKLNGEIISADSMAVYKFMDIGTAKPLECMKKVPHHLIDVVEPGGYFDAKIFEEMAKEKIEEIKRKGKVPIVVGGTYLYIQALLYGIDETPKPDWNLRNKLYEIARKKGNDYLYEKLKAIDPKYAKKIHKNDLRRIVRALEVFINTGKPFSSFHSWNKPKMDFVGIYLKRSPESLYKRIENRVYDMVKDGLLEEVKKLLEMGYENFLTSGQAIDYKEFVPCAKGEKSLEECIKEAIKNTKKQAKRQIRWFRKQGWHEIDLDKLSIEEACEEVVRIYKDANKTKLEHHHHHH, MSYKGSSIPVCSRISSLYFFSVYLQDLADMEDRTSTSRCSSTTRIKPTKIAGFGTVPLLSSAGTNQSVLSTKSAKSCLSNTIAASMTEPQVSMTQVDRMYEDNLARKKRSMVAVSEFNKIYGQEYHPPSSSESTRSFYENIDAVYPSSKASESSSSSASTGSSDNRKDIEKWEKLDSEAESDIELFIKVSDCFD, MDYTIIDAHAHLWLRQDTVVDGFPIRTLENGRSLFMGEIRQMVPPFMIDGVNSAEVFLSNMDYAQVSAAVITQEFIDGIQNDYLMEVVSRYPDRFFVCGMCEFRKPGYLEQAKELIGKGFKAIKIPAQRLLLKEGRVMLNCPEMMQMFRWMEERGVILSVDLAEGAIQVLEMEEIIQECPRLKIAVGHFGMVTLPDWKEQIKLARHPNVMIESGGITWLFNDEFYPFKGAIKAIREAAELVGMEKLMWGSDYPRTITAITYKMSYDFVVKSPELSEAEKTLFLGGNARKFYGFAELPELPYIKNMSE, MGHHHHHHSHMSLSSSACPLLLTLRDHLLQLEQQLCFSLFKIFWQMLVEKLDVYIYQEIILANHFNEGGAAQLQFDMTRNLFPLFSHYCKRPENYFKHIKEACIVLNLNVGSALLLKDVLQSASGQLPATAALNEVGIYKLAQQDVEILLNLRTNWPNTGK, MLTEDDIKEIRENREMIEQGRREPVTLYIKGVSEKDPITGEEIQGEPRKENVQLVWKKFTSVEKTKFADLDVKKGEALVTFPLNVDLENIEKIERKGVFYVIELIDERGLGGVNRREVIVKRVI, MGHHHHHHSHMVVVAAAPNPADGTPKVLLLSGQPASAAGAPAGQALPLMVPAQRGASPEAASGGLPQARKRQRLTHLSPEEKALRRKLKNRVAAQTARDRKKARMSELEQQVVDLEEENQKLLLENQLLREKTHGLVVENQELRQRLGMDALVAEEEAEAKGNEVRPVAGSAESAALRLRAPLQQVQAQLSPLQNISPWILAVLTLQIQSLISCWAFWTTWTQSCSSNALPQSLPAWRSSQRSTQKDPVPYQPPFLCQWGRHQPSWKPLMN
